Tests used:
[1] = biological target: CD79b endogenously expressed on the cell surface (malignant B cell lines, normal B cells in PBMC, CLL patients' B lymphocytes) (human) (UniProt P40259); assay: flow cytometry quadrant plot, untransfected NALM6 cells; Anti-CD79b-PE against Anti-IgM-APC
[2] = biological target: CD79b endogenously expressed on the cell surface (malignant B cell lines, normal B cells in PBMC, CLL patients' B lymphocytes) (human) (UniProt P40259); assay: flow cytometry on SU-DHL-4 cells; anti-human IgG1-PE; MFI (PE); table under the graph; fit of a flat control curve
[3] = biological target: CD79b endogenously expressed on the cell surface (malignant B cell lines, normal B cells in PBMC, CLL patients' B lymphocytes) (human) (UniProt P40259); assay: flow cytometry on Ramos cells; anti-human IgG1-PE; MFI (PE); table under the graph; fit of a flat control curve
[4] = biological target: CD79b endogenously expressed on the cell surface (malignant B cell lines, normal B cells in PBMC, CLL patients' B lymphocytes) (human) (UniProt P40259); assay: flow cytometry on Nalm-6 cells; anti-human IgG1-PE; MFI (PE); table under the graph; fit of a flat control curve
[5] = biological target: CD79b endogenously expressed on the cell surface (malignant B cell lines, normal B cells in PBMC, CLL patients' B lymphocytes) (human) (UniProt P40259); assay: flow cytometry on PBMC of Donor 2890, B cells marked with CD19-BV421; anti-human IgG1-PE; MFI (PE); table under the graph; fit of a flat control curve
[6] = biological target: CD79b endogenously expressed on the cell surface (malignant B cell lines, normal B cells in PBMC, CLL patients' B lymphocytes) (human) (UniProt P40259); assay: flow cytometry on BJAB cells; anti-human IgG1-PE; MFI (PE); table under the graph; fit of a flat control curve
[7] = biological target: T1, human CD79b recombinant protein (human, UniProt P40259 29-159); assay: ELISA, coated human CD79b recombinant protein
T1 construct: also called human CD79b ECD antigen; recombinant human CD79b ECD
T1 sequence: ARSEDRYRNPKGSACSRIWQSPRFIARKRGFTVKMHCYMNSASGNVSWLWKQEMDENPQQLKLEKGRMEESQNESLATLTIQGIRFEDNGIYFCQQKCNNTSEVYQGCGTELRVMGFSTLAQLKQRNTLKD
Protocol: (§1) Binding affinities of anti-CD79b antibodies to human and cynomolgus CD79b recombinant proteins were tested by ELISA. 1 ug/ml (in PBS buffer) of human or cynomolgus CD79b recombinant proteins were coated on an ELISA plate overnight. ELISA plates were washed and blocked with blocking buffer (PBS+1% BSA) followed by incubation with serially diluted anti-CD79b primary antibodies. Anti-CD79b antibody binding was quantified using an anti-human IgG HRP secondary antibody (Biolegend Catalog #410902) and HRP substrate.

[8] = biological target: T2, CD79b endogenously expressed on the cell surface (malignant B cell lines, normal B cells in PBMC, CLL … (human, UniProt P40259 29-229)); assay: flow cytometry on Ramos cells; anti-human IgG1-PE; MFI (PE); table under the graph
T2 construct: whole, on cells; On cells CD79b stands in the B-cell receptor complex with CD79a and surface Ig; also called cell surface CD79b; endogenous CD79b
T2 sequence (looked up): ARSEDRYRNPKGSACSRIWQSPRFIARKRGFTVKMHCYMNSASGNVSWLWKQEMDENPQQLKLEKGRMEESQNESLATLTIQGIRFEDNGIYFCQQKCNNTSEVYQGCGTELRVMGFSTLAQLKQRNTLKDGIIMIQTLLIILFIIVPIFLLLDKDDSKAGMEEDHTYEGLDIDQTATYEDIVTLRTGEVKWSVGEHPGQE
Protocol: (§2) The binding affinities of anti-CD79b antibodies to malignant B cell lines were tested. […] The cells were then incubated with 100 μl anti-human IgG1-PE (Invitrogen, cat: 12-4998-82), 1:1000 dilution, for 30 min on ice, washed with 200 ul PBS for three times before flow cytometry analysis.

[9] = biological target: T2, CD79b endogenously expressed on the …; assay: flow cytometry on Daudi cells; anti-human IgG1-PE; MFI (PE); table under the graph
Protocol: as §2

[10] = biological target: T3, cynomolgus CD79b recombinant protein (cynomolgus); assay: ELISA, coated cynomolgus CD79b recombinant protein
T3 chain: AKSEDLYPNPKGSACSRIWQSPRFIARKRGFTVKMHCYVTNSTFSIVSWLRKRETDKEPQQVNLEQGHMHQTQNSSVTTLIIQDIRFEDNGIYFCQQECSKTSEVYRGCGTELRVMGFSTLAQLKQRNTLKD
Protocol: as §1

[11] = biological target: T1, human CD79b recombinant protein; assay: BLI, antibody captured on anti-human IgG Fc probes, human CD79b in solution, 1:1 model
Protocol: (§3) Binding affinities of anti-CD79b antibodies to human CD79b recombinant proteins were tested by BLI. 10 ug/ml of anti-CD79b antibodies were captured by anti-human IgG Fc probes (Gator Bio Catalog #160024). […] Absolute kD was determined by applying a 1:1 binding model (Global Rmax unlinked).

[12] = biological target: T1, human CD79b recombinant protein; assay: ELISA on recombinant human CD79b ECD; A 450nm
[13] = biological target: T1, human CD79b recombinant protein; assay: BLI; antibody at 10 ug/ml captured on anti-human IgG Fc probes, hCD79b in solution; same value printed in the rows for 18.3 and 9.14 nM hCD79b
Protocol: as §3

[14] = biological target: T2, CD79b endogenously expressed on the …; assay: flow cytometry on SU-DHL-4 cells; anti-human IgG1-PE; MFI (PE); table under the graph
Protocol: as §2

[15] = biological target: T2, CD79b endogenously expressed on the …; assay: flow cytometry on PBMC of Donor 2235, B cells marked with CD19-BV421; anti-human IgG1-PE; MFI (PE); table under the graph
Protocol: (§4) The binding affinities of anti-CD79b antibodies to endogenous B cells were tested. […] The cells were then incubated with […] mixture of anti-human IgG1-PE (Invitrogen, Cat #: 12-4998-82), 1:1000 dilution; CD19-BV421 (Biolegend, Cat #:302230, 1:400 dilution) for 30 min on ice, and washed with 200 ul PBS for three times before flow cytometry analysis.

[16] = biological target: T2, CD79b endogenously expressed on the …; assay: flow cytometry on BJAB cells; anti-human IgG1-PE; MFI (PE); table under the graph
Protocol: as §2

[17] = biological target: T2, CD79b endogenously expressed on the …; assay: flow cytometry on PBMC of CLL Donor 0255 (B lymphocytes); PE goat anti-human IgG Fc; MFI PE
Protocol: To determine the binding affinities of the anti-CD79b antibodies to cell surface CD79b on Chronic Lymphocytic Leukemia (CLL) patient's B lymphocytes, a cell-based binding assay was conducted. […] CLL patient PBMCs were purchased from the company Bioscience. […] Specifically, 2.5×10⁴ PBMC cells in 50 μl FACS buffer (1×PBS+2% BSA+2 mM EDTA) were seeded in each well of a V bottom 96-well plate. […] The mixture was incubated on ice for 30 minutes, and then washed twice with FACS buffer. The cells were re-suspended in 100 μl FACS buffer containing PE conjugated goat anti-human IgG Fc (1:1000) and anti-human CD19 (BV421), and incubated for 30 minutes on ice in darkness. After washing twice with FACS buffer, the cells were re-suspended in 100 μl of FACS buffer and analyzed with a Cytek cytometer.

[18] = biological target: T2, CD79b endogenously expressed on the …; assay: flow cytometry on a cell line expressing endogenous CD79b (not named on the sheet or in the text); MFI (PE)
[19] = biological target: T2, CD79b endogenously expressed on the …; assay: flow cytometry on PBMC of Donor 2890, B cells marked with CD19-BV421; anti-human IgG1-PE; MFI (PE); table under the graph
Protocol: as §4

[20] = biological target: T2, CD79b endogenously expressed on the …; assay: flow cytometry on PBMC of Donor 356, B cells marked with CD19-BV421; anti-human IgG1-PE; MFI (PE); table under the graph
Protocol: as §4

[21] = biological target: T2, CD79b endogenously expressed on the …; assay: flow cytometry on Nalm-6 cells; anti-human IgG1-PE; MFI (PE); table under the graph
Protocol: as §2

[22] = biological target: T2, CD79b endogenously expressed on the …; assay: flow cytometry on PBMC of Donor 889, B cells marked with CD19-BV421; anti-human IgG1-PE; MFI (PE); table under the graph
Protocol: as §4

[23] = biological target: T2, CD79b endogenously expressed on the …; assay: flow cytometry on PBMC of Donor 356, B cells marked with CD19-BV421; anti-human IgG1-PE; MFI (PE); table under the graph (the graph's legend prints ch44D2)
Protocol: as §4

[24] = biological target: T1, human CD79b recombinant protein; assay: BLI; antibody at 10 ug/ml captured on anti-human IgG Fc probes, hCD79b in solution; row for 9.14 nM hCD79b

Molecule	IC50 [7] [pM]	EC50 [8] [pM]	EC50 [9] [pM]	IC50 [10] [pM]	EC50 (read off the curve) [12] [pM]	EC50 [14] [pM]	EC50 [15] [pM]	EC50 [16] [pM]	EC50 (read off the curve) [17] [pM]	EC50 (read off the curve) [18] [pM]	EC50 [19] [pM]	EC50 [20] [pM]	EC50 [21] [pM]	EC50 [22] [pM]	other results
Isotype (antibody)															Q3 (percent of cells Anti-CD79b-PE positive, Anti-IgM-APC negative) [1]: 1.16
IgG1 control (antibody)															EC50 [2]: 170 pM; EC50 [3]: 10 pM; EC50 [4]: 8170 pM; EC50 [5]: 163 pM; EC50 [6]: 40 pM
ch23D8 (antibody, human IgG1, kappa, V domains shown, Rabbit/human chimeric IgG1 kappa; also called chimeric 23D8) VH: QSLEESGGGLVTPGGTLTLTCTVSGLSLSSNAINWVRQAPGKGLEWIGMIYSGGRIEYASWAKGRFTISKTSTTVDLKITSPTTEDTATYFCAKGMSPSAHSSDIWGPGTLVTVSA VL: AYDMTQTPASVEVAVGGTVTIKCQASQSISDNLSWYQQKPGQPPKLLIYDASDLASGVPSRFSGSGSGTEFTLTISDLEPADAATYYCQQDWISSNVDNTFGGGTEVVVKR	330	1400	1080	570	~100	930	921	1060	~900	~300	1050	225	4580	150	Kd [11]: 320 pM; koff [13]: 7.85e-05 s⁻¹; kon [13]: 245000 M⁻¹ s⁻¹
ch44G2 (antibody, human IgG1, kappa, V domains shown, Rabbit/human chimeric IgG1 kappa; also called chimeric 44G2) VH: QSVRETGGGLVQPGGSLKLSCKASGFTINIDYWISWVRQAPGKGLEWIGIIDPGDGTTYFAIWVSGRFTISFDNTQNTVDLQMNSLTAADTATYFCVREFSASAYQYDLWGPGTLVTVSS VL: DLVMTQTPSSVSAAVGGTVSINCRASEDIENYLAWYQQKPGQPPKLLIYRASTLSSGVSSRFSGSGSGTEFTLTISGVQPDDAATYYCQQGYRNSNVDNPFGGGTEMVVKR	630	860	790	3000	~500	720	727	670	~800	~200	675		1590	95.5	EC50 [23]: 357 pM
polatuzumab (antibody, V domains shown) VH: EVQLVESGGGLVQPGGSLRLSCAASGYTFSSYWIEWVRQAPGKGLEWIGEILPGGGDTNYNEIFKGRATFSADTSKNTAYLQMNSLRAEDTAVYYCTRRVPIRLDYWGQGTLVTVSS VL: DIQLTQSPSSLSASVGDRVTITCKASQSVDYEGDSFLNWYQQKPGKAPKLLIYAASNLESGVPSRFSGSGSGTDFTLTISSLQPEDFATYYCQQSNEDPLTFGQGTKVEIKR	190	1780	2240			1440	1980	1260	~900		1560	238	7850	154	Kd [24]: 417 pM

— patent US20260209346A1 (LTZ THERAPEUTICS, published 2026)
